The results in this text go back to US20210032365A1 (Chugai, published 2021).

To fix the notation:
T1: human C1s (human, UniProt P09871 16-688)
T1 construct: also called hC1s; serum-derived human C1s (CompTech)
T1 sequence: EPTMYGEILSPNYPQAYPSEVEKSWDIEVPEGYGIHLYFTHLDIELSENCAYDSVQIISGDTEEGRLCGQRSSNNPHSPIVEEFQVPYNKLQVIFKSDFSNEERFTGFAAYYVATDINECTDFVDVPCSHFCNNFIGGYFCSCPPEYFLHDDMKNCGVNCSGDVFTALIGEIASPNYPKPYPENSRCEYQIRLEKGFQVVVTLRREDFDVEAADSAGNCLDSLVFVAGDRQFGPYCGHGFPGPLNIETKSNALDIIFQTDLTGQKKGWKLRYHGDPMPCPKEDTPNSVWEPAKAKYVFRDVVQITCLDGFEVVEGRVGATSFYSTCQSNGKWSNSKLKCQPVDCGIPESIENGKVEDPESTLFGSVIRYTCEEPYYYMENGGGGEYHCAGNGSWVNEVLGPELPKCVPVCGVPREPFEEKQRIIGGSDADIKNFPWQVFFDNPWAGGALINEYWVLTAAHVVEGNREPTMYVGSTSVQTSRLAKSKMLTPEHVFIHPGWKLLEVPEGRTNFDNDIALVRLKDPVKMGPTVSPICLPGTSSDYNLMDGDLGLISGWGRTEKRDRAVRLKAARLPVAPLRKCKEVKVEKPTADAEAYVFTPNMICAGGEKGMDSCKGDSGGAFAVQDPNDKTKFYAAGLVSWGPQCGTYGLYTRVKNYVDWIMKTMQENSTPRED

B1: C1_IPN92H0026-SG4GK/IPN93L0023-SK1 (antibody, human IgG4 S228P, kappa, name in Kabat numbering, V domains shown)
VH: EVMLVESGGGLVKPGGSLRLSCAASGFTFSNYAMSWVRQAPGKGLEWVATISSGGSHTYYLDSVKHRFTISRDNSKDTLYLQMNSLRAEDTALYYCARLFTGYAMDYWGQGTLVTVSS
VL: QIVLTQSPATLSLSPGERATLSCTASSSVSSSYLHWYQQKPGKAPKLWIYSTSNLASGVPSRFSGSGSGTDYTLTISSLQPEDFATYYCHQYYRHPPITFGQGTKLEIKR
notes: also called IPN92H0026/IPN93L0023
B2: C1_IPN92H0026-SG4GK/IPN93L0030-SK1 (antibody, human IgG4 S228P, kappa, name in Kabat numbering, V domains shown)
VH: B1 VH
VL: B1 VL with P96H
notes: also called IPN92H0026/IPN93L0030
B3: C1_IPN92H0026-SG4GK/IPN93L0028-SK1 (antibody, human IgG4 S228P, kappa, name in Kabat numbering, V domains shown)
VH: B1 VH
VL: B1 VL with Y93H
notes: also called IPN92H0026/IPN93L0028
B4: C1_IPN92H0026-SG4GK/IPN93L0029-SK1 (antibody, human IgG4 S228P, kappa, name in Kabat numbering, V domains shown)
VH: B1 VH
VL: B1 VL with Y93H, H95L, P96H
notes: also called IPN92H0026/IPN93L0029
B5: C1_IPN92H0033-SG4GK/IPN93L0021-SK1 (antibody, human IgG4 S228P, kappa, name in Kabat numbering, V domains shown)
VH: B1 VH with H66G, Y103H
VL: B1 VL with Y93H, H95L
notes: also called IPN92H0033/IPN93L0021
B6: C1_IPN92H0033-SG4GK/IPN93L0029-SK1 (antibody, human IgG4 S228P, kappa, name in Kabat numbering, V domains shown)
VH: B1 VH with H66G, Y103H
VL: B1 VL with Y93H, H95L, P96H
notes: also called IPN92H0033/IPN93L0029
B7: C1_IPN92H0026-SG4GK/IPN93L0031-SK1 (antibody, human IgG4 S228P, kappa, name in Kabat numbering, V domains shown)
VH: B1 VH
VL: B1 VL with Y93H, P96H
notes: also called IPN92H0026/IPN93L0031
B8: C1_IPN92H0033-SG4GK/IPN93L0030-SK1 (antibody, human IgG4 S228P, kappa, name in Kabat numbering, V domains shown)
VH: B1 VH with H66G, Y103H
VL: B1 VL with P96H
notes: also called IPN92H0033/IPN93L0030
B9: C1_IPN92H0033-SG4GK/IPN93L0031-SK1 (antibody, human IgG4 S228P, kappa, name in Kabat numbering, V domains shown)
VH: B1 VH with H66G, Y103H
VL: B1 VL with Y93H, P96H
notes: also called IPN92H0033/IPN93L0031
B10: C1_IPN92H0026-SG4GK/IPN93L0024-SK1 (antibody, human IgG4 S228P, kappa, name in Kabat numbering, V domains shown)
VH: B1 VH
VL: B1 VL with H95L, P96H
notes: also called IPN92H0026/IPN93L0024
B11: C1_IPN92H0033-SG4GK/IPN93L0028-SK1 (antibody, human IgG4 S228P, kappa, name in Kabat numbering, V domains shown)
VH: B1 VH with H66G, Y103H
VL: B1 VL with Y93H
notes: also called IPN92H0033/IPN93L0028
B12: C1_IPN92H0033-SG4GK/IPN93L0023-SK1 (antibody, human IgG4 S228P, kappa, name in Kabat numbering, V domains shown)
VH: B1 VH with H66G, Y103H
VL: B1 VL
notes: also called IPN92H0033/IPN93L0023

Residue numbers refer to the chain shown, from its start.

For one assay, the target named is T1, human C1s. In words: SPR, Ab captured; pH 5.8, 1.2 mM Ca. As for the experimental part: (§1) All variants were transiently expressed and purified by the method described above. The binding affinity of each histidine-substituted variant at pH 7.4 and pH 5.8 was determined at 37 degrees C. using Biacore T200 instrument (GE Healthcare). Recombinant Protein A/G (Pierce) was immobilized onto all flow cells of a CM4 sensor chip using an amine coupling kit (GE Healthcare). Antibodies and analytes were prepared in 7(+) buffer (20 mM ACES, 150 mM NaCl, 1.2 mM CaCl2, 0.05% Tween 20, 0.005% NaN3, pH 7.4), 5(+) buffer (20 mM ACES, 150 mM NaCl, 1.2 mM CaCl2, 0.05% Tween 20, 0.005% NaN3, pH 5.8), or 5(−) buffer (20 mM ACES, 150 mM NaCl, 3 micro M CaCl2, 0.05% Tween 20, 0.005% NaN3, pH 5.8). Each antibody was captured onto the sensor surface by protein A/G. Antibody capture levels were aimed at 200 resonance unit (RU). Serum-derived human C1s (CompTech) or recombinant C1s prepared in EXAMPLE 1 was injected at 50 nM, followed by dissociation. The sensor surface was regenerated in each cycle with 10 mM Glycine-HCl, pH 1.5. […] The ratio of KD 5.8+ to KD 7.4+(“KD 5+/7+”) and that of KD 5.8− to KD 7.4+(“KD 5−/7+”) were calculated. When the KD 5+/7+ or KD 5−/7+ of a variant is larger than that of the parent antibody IPN009VH2-SG4GK/IPN009VK3-SK1, that variant is considered to be “pH”- or “pH and Ca”-dependent, respectively. When binding response in 5(+) buffer and/or in 5(−) buffer of a variant is much lower than that of IPN09VH2/IPN009VK3, that variant is also considered as “pH”- and/or “pH and Ca”-dependent. Therefore, such mutations are effective to generate “pH”- and/or “pH and Ca”-dependent antibody. To further enhance “pH” and/or “pH and Ca” dependency, a combination of histidine mutations was conducted. Antibodies with combinations of histidine mutations were evaluated using Biacore by the method described above.
For B1, the Kd was found to be 1.53 nM, the koff was 0.00124 s⁻¹ and the kon was 813000 M⁻¹ s⁻¹.
For B2 the same measures were 26.2 nM, 0.0592 s⁻¹ and 2.26e+06 M⁻¹ s⁻¹.
On the same counts, the results for B3 are 10.6 nM, 0.0059 s⁻¹ and 557000 M⁻¹ s⁻¹.
For B4 the same measures were 10.2 nM, 0.00613 s⁻¹ and 602000 M⁻¹ s⁻¹.
B5: the Kd was 5.01 nM, the off-rate (koff) was determined as 0.00293 s⁻¹ and the kon was 585000 M⁻¹ s⁻¹.
With B6, the Kd turned out to be 24.6 nM, the koff came out at 0.0222 s⁻¹ and the association rate constant (kon) is 905000 M⁻¹ s⁻¹.
For the molecule B7, the Kd came to 4290 nM, the koff is 0.0178 s⁻¹ and the kon worked out at 4140 M⁻¹ s⁻¹.
B8: the Kd worked out at 89.3 nM, the koff amounted to 0.0449 s⁻¹ and the kon was determined as 503000 M⁻¹ s⁻¹.
Take B9: the koff was found to be 0.00209 s⁻¹ and the kon was found to be 807000 M⁻¹ s⁻¹.
Regarding B10, the Kd worked out at 3.16 nM, the koff came out at 0.00143 s⁻¹ and the kon turned out to be 451000 M⁻¹ s⁻¹.
For B11 the same measures were 20.1 nM, 0.0144 s⁻¹ and 717000 M⁻¹ s⁻¹.
On the same counts, the results for B12 are 5.05 nM, 0.00282 s⁻¹ and 559000 M⁻¹ s⁻¹.

A further assay has as its target T1, human C1s. In words: SPR, Ab captured; pH 5.8, 3 uM Ca. The procedure:
as §1
Take B1: the Kd came to 9.95 nM, the koff was 0.0619 s⁻¹ and the kon worked out at 6.23e+06 M⁻¹ s⁻¹.
Consider B2, for which the Kd was 270 nM, the koff came to 0.0012 s⁻¹ and the association rate constant (kon) was found to be 4460 M⁻¹ s⁻¹.
For B3 the same measures were 27.6 nM, 0.176 s⁻¹ and 6.4e+06 M⁻¹ s⁻¹.
For B4 the same measures were 5.07 nM, 0.00412 s⁻¹ and 812000 M⁻¹ s⁻¹.
Regarding B5, the Kd stood at 7.59 nM.
On to B6, for which the Kd was 9.79 nM, the koff was found to be 0.00376 s⁻¹ and the kon was found to be 384000 M⁻¹ s⁻¹.
For B7 the same measures were 215 nM, 0.00133 s⁻¹ and 6170 M⁻¹ s⁻¹.
On the same counts, the results for B8 are 2560 nM, 0.0603 s⁻¹ and 23500 M⁻¹ s⁻¹.
In the case of B9, the koff was found to be 0.00934 s⁻¹ and the kon is 674000 M⁻¹ s⁻¹.
As to B10, the Kd was determined as 15.1 nM, the koff was 0.112 s⁻¹ and the kon was 7.43e+06 M⁻¹ s⁻¹.
For B11 the same measures were 8.5 nM, 0.0056 s⁻¹ and 658000 M⁻¹ s⁻¹.
For the molecule B12, the Kd was 11.3 nM.

For another assay, the target named is T1, human C1s. In words: SPR; KD pH 5.8 3 uM Ca / KD pH 7.4 1.2 mM Ca. As for the experimental part:
as §1
Consider B1, for which the “KD 5(-)/7(+)” value is 8.6.
As to B2, the “KD 5(-)/7(+)” value amounted to 10.9.
Still for that read-out and setting: as for B3, the figure is 5.8; as for B4, 0.6.
Still for that read-out and setting: as for B5, the figure is 4; as for B6, 0.6.
Same read-out and setting: as for B7, the figure is 0.3; as for B8, 106.
Take B9: the “KD 5(-)/7(+)” value stood at 3.9.
Still for that read-out and setting: next, B10: 13.2; B11: 1.3.
Still for that read-out and setting: as for B12, the figure is 3.5.

The target in the next assay is T1, human C1s. In words: SPR, Ab captured; pH 7.4, 1.2 mM Ca. The procedure: as §1
B1: the Kd was 1.16 nM, the koff came out at 0.000608 s⁻¹ and the kon was determined as 523000 M⁻¹ s⁻¹.
On the same counts, the results for B2 are 24.8 nM, 0.0103 s⁻¹ and 414000 M⁻¹ s⁻¹.
Consider B3, for which the Kd was 4.76 nM, the koff worked out at 0.00255 s⁻¹ and the kon is 535000 M⁻¹ s⁻¹.
For the molecule B4, the Kd is 9.03 nM, the koff is 0.00457 s⁻¹ and the kon came to 507000 M⁻¹ s⁻¹.
For B5 the same measures were 1.92 nM, 0.000672 s⁻¹ and 350000 M⁻¹ s⁻¹.
For B6 the same measures were 15.4 nM, 0.0074 s⁻¹ and 479000 M⁻¹ s⁻¹.
Turning to B7, the Kd was determined as 684 nM, the koff came out at 0.016 s⁻¹ and the kon is 23300 M⁻¹ s⁻¹.
With B8, the Kd turned out to be 24.2 nM, the koff amounted to 0.0146 s⁻¹ and the kon was determined as 603000 M⁻¹ s⁻¹.
Consider B9, for which the koff is 0.00187 s⁻¹ and the association rate constant (kon) came to 522000 M⁻¹ s⁻¹.
In the case of B10, the Kd is 1.14 nM, the koff stood at 0.00047 s⁻¹ and the kon was determined as 412000 M⁻¹ s⁻¹.
For B11 the same measures were 6.5 nM, 0.00218 s⁻¹ and 335000 M⁻¹ s⁻¹.
For B12 the same measures were 3.25 nM, 0.000978 s⁻¹ and 301000 M⁻¹ s⁻¹.

Another assay deals with T1, human C1s. The experiment in a line: SPR; KD pH 5.8 1.2 mM Ca / KD pH 7.4 1.2 mM Ca. As for the experimental part:
as §1
As to B1, the “KD 5(+)/7(+)” value was determined as 1.3.
On the same count and under the same terms, as for B2, the figure is 1.1.
The same measure, in the same setting: as for B3, the figure is 2.2; as for B4, 1.1; as for B5, 2.6.
On to B6, for which the “KD 5(+)/7(+)” value worked out at 1.6.
Same read-out and setting: next, B7: 6.3; B8: 3.7; B9: 0.7.
Still for that read-out and setting: next, B10: 2.8.
Same read-out and setting: next, B11: 3.1; B12: 1.6.
